Results taken from PMC2701438.
Blank lines part the entries; values can stand above or below the molecule they belong to.

Target: Full length LEF-1 (1-399) (human) (UniProt Q9UJU2)
Chain of UniProt Q9UJU2 (Q9UJU2 whole entry): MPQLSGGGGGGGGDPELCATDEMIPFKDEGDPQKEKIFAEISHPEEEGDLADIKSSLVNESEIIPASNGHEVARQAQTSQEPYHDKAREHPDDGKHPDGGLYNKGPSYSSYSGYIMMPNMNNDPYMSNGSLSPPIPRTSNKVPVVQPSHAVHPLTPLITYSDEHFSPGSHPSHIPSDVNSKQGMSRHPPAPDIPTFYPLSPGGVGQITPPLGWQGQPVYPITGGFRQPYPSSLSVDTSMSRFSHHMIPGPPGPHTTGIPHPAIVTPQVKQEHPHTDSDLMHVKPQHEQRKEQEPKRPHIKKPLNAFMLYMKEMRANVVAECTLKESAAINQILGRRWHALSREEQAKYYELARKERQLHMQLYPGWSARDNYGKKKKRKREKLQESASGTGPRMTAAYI

- repression of LEF-1•β-catenin activated TOPFlash luciferase reporter in COS-1 cells: 3 fold
Molecule: human TLE-2 (from UniProt Q04725 1-743) (natural protein)

- repression of LEF-1•β-catenin activated TOPFlash luciferase reporter in COS-1 cells, 250 and 500 ng Groucho expression vector: 3 fold
Molecule: GST-Groucho (Drosophila), recovered as a 97 kDa protease-stable fusion protein (from UniProt P16371 1-730) (natural protein)

B1: human Amino-enhancer-of-split (AES) (natural protein)
chain: MMFPQSRHSGSSHLPQQLKFTTSDSCDRIKDEFQLLQAQYHSLKLECDKLASEKSEMQRHYVMYYEMSYGLNIEMHKQAEIVKRLNGICAQVLPYLSQEHQQQVLGAIERAKQVTAPELNSIIRQQLQAHQLSQLQALALPLTPLPVGLQPPSLPAVSAGTGLLSLSALGSQAHLSKEDKNGHDGDTHQEDDGEKSD
- repression of LEF-1•β-catenin activated TOPFlash luciferase reporter in COS-1 cells, 250 and 500 ng AES expression vector: 3 fold
